Here are results for one molecule from PMC4263503 (Cell, 2014).

As usually defined, the Kd is the concentration at which binding is half-saturated.

Assay [1] has as its target T1, Human Tau, hTau40 (isoform F, the longest isoform of Tau) (human, UniProt P10636-8 1-441). The assay is described as follows: other fluorescence titration.
Assay [2] deals with T1, Human Tau, hTau40 (isoform F, the …). The assay is described as follows: other fluorescence titration. This is another data set of the same source.

Read-outs that look alike come from different tables or passages of the source.

B1: Human Hsp90β (natural protein)
chain: not shown
As to B1, the Kd is 4.8 ± 1 µM in assay [1] and 5.2 ± 3 µM in assay [2].
